Biological target: the molecule itself
Assay: SDS-PAGE and anti-6xHis immunoblot of Ni-affinity elution fractions

B1: 6xHis tagged PdhR (natural protein)
chain: MAYSKIRQPKLSDVIEQQLEFLILEGTLRPGEKLPPERELAKQFDVSRPSLREAIQRLEAKGLLLRRQGGGTFVQSSLWQSFSDPLVELLSDHPESQYDLLETRHALEGIAAYYAALRSTDEDKERIRELHHAIELAQQSGDLDAESNAVLQYQIAVTEAAHNVVLLHLLRCMEPMLAQNVRQNFELLYSRREMLPLVSSHRTRIFEAIMAGKPEEAREASHRHLAFIEEILLDRSREESRRERSLRRLEQRKN
notes: also called PdhR-his; recombinant PdhR-his; source: E. coli BL21 DE3 (pET21a(+)), purified (Ni2+ chelating column, HisTrap)
  stoichiometry N: 2

Reference: PMC11508082 (PLOS Pathogens, 2024)
